# Assay results published in patent publication US20160310572A1, “COMPOSITIONS AND METHODS TO DIAGNOSE DIABETES AND/OR TO TREAT NEGATIVE EFFECTS OF DIABETES” (WAYNE STATE UNIVERSITY, priority 2013, published 2016).
# “Also recorded” adds a separate entry of the source.
# B1: Nodal: composition that up-regulates SMAD-signaling (protein, UniProt Q96S42 238-347, looked up)
# Nodal homolog: HHLPDRSQLCRKVKFQVDFNLIGWGSWIIYPKQYNAYRCEGECPNPVGEEFHPTNHAYIQSLLKRYQPHRVPSTCCAPVKTKPLSMLYVDNGRVLLDHHKDMIVEECGCL
# B2: TGβ2: TGFβ isoform 2 administered as part of a therapeutic composition (protein)
# chain: ALDAAYCFRNVQDNCCLRPLYIDFKRDLGWKWIHEPKGYNANFCAGACPYLWSSDTQHTKVLSLYNTINPEASASPCCVSQDLEPLTILYYIGNTPKIEQLSNMIVKSCKCS
# B3: TGFβ3: recombinant Transforming Growth Factor beta 3 isoform, injected subconjunctivally (protein)
# chain: ALDTNYCFRNLEENCCVRPLYIDFRQDLGWKWVHEPKGYYANFCSGPCPYLRSSDTTHSTVLGLYNTLNPEASASPCCVPQDLEPLTILYYVGRTPKVEQLSNMVVKSCKCS
# Tests used:
# [1] = Example 2: promotion of re-epithelialization; format: in vivo; conditions: end point: establishment of a biological barrier or Superficial Punctate Keratitis
# Excerpt: (§1) Compositions can also be administered in effective amounts to promote re-epithelialization, reduce the occurrence and/or severity of ulcers and preserve nerve function (appropriate signal potentiation) and/or integrity (physical state of the nerve itself). Objective measures for re-epithelialization include, without limitation, slit lamp microscopy with fluorescence staining. Objective measures for reduction and/or severity of ulcers include, without limitation, slit lamp microscopy for surface (ir)regularity. Objective measures for preservation of nerve function include corneal sensitivity measures. Objective measures for preservation of nerve integrity include in vitro confocal microscopy to determine the nerve fiber health (length, diameters and branches.)
# (§2) A number of experiments are conducted to further define the role of up-regulation of TGFβ1, TGFβ2, TGFβ3, Serpine 1, fibronectin, lumican, epidermal growth factor ligands, activin and Nodal as well as the down-regulation of sEH/Ephx2 in the promotion of wound healing, promotion of re-epithelialization, reduction of the occurrence and/or severity of ulcers, preservation of nerve function and/or integrity, promotion of eye health and maintenance of vision. In the experiments, each experiment having relevant control conditions, each of the listed compounds is administered as part of a therapeutic composition (including as a direct therapeutic and/or as part of a genetic therapy as described herein).
# [2] = Example 2: occurrence and/or severity of ulcers; format: in vivo; conditions: end point: slit lamp microscopy for surface (ir)regularity
# Excerpt: as §1, §2
# [3] = system: corneas of type 1 DM rats and mice and type 2 DM rats; test: Epithelial wound healing in DM corneas of three rodent models (summary statements); format: in vivo; conditions: exogenous TGFβ3
# Excerpt: The described genome-wide cDNA microarrays were used to compare the gene expression profiles of WH versus UW and DM versus NL CECs. […] Without being bound to a single theory, the effects of TGFβs on epithelial wound closure are related to its ability to activate Smad-dependent and -independent pathways, to modulate its own expression, and to mediate target gene expression.
# The altered expression of TGFβ3 was also confirmed in cultured human corneas post wound healing, indicating the relevance of the study. […] While the mechanisms underlying hyperglycemia-suppressed wound-induced TGFβ3 expression is unclear, early inhibitory effects of hyperglycemia on TGFβ3 expression, which differs from that of TGFβ1 (42), may exacerbate the suppression of TGFβ3 up-regulation in response to wounding.
# [4] = system: adult skin wounds; conditions: failure due to increased angiogenesis in post-surgery skin; cited from earlier work
# [5] = system: STZ B6 mouse corneas; test: Epithelial wound closure in STZ B6 mouse corneas after subconjunctival recombinant TGFβ3; format: in vivo; conditions: STZ B6 mice, 14 ng subconjunctival 4 hours prior to wounding, 2 mm wound, 16 and 24 hpw, vs PBS
# Protocol: (§3) FIGS. 7A-7C. Effects of TGFβ3 on epithelial wound closure in B6 and STZ B6 mouse corneas. […] A 2 mm epithelial wound was made and allowed to heal for 16 h in B6 mice and 24 h in STZ B6 mice, and then fluorescence stained, and photographed. 1) NL cornea injected with PBS, 2) NL corneal injected with TGFβ3, 3) DM (STZ) cornea injected with PBS, 4) DM corneal injected with TGFβ3. (FIG. 7B) Changes in the mean of the remaining wound areas in pixels were calculated by Adobe Photoshop software with p value listed, n=5. (FIG. 7C). CECs collected during wounding (first 2 lanes) and 16 hpw (1, 2) or 24 hpw (3, 4) in PBS (1, 3) and TGFβ3 (2, 4) treated corneas were extracted and subjected to realtime-PCR analysis for Serpine 1 expression, N=3, **p<0.01.
# Corneal Epithelial Debridement Wound. Anesthetized rats and mice were first demarcated with a trephine in the central cornea (5-mm circular wound for rats and 2 mm for mice) and CECs were removed with a blunt scalpel blade under a dissecting microscope (4; 6; 7). The blade with scraped CECs was immediately immersed into liquid nitrogen and the visible ice was collected into a test tube, placed on dry ice and stored at −80° C. The sample was marked as unwounded (UW). Bacitracin ophthalmic ointment was applied to the cornea after surgery to prevent infection. […]
# [6] = system: Serpine 1; test: Realtime-PCR for Serpine 1 expression in CECs of TGFβ3 treated mouse corneas; format: in vivo; conditions: NL and DM mice, 16 or 24 hpw
# Protocol: as §3
# RNA Extraction and Real-time PCR. For RNA isolation, CECs were scraped off of corneas, with 2 corneas pooled into 1 tube as one sample. RNA was extracted from the collected CECs using RNeasy Mini Kit (QIAGEN). cDNA was generated with an oligo(dT) primer (Invitrogen) followed by analysis using real-time PCR with the Power SYBR Green PCR Master Mix (AB Applied Biosystems), based on the expression of β-actin.
# [7] = system: GK rat corneas; test: Epithelial wound closure in GK rat corneas after subconjunctival recombinant TGFβ3; format: in vivo; conditions: GK rats, 40 ng in 20 μl subconjunctival 4 hours prior to debridement, 5-mm wound, 42 h, vs PBS
# Protocol: (§4) FIGS. 6A-6C. Effects of TGFβ3 on epithelial wound closure in GK rat corneas. (FIG. 6A) A total of 40 ng recombinant TGFβ3, with PBS as the control, was injected into subconjunctival space at two sites (10 μl each) of GK rats 4 hours prior to wounding. Corneal epithelial wound of 5-mm diameter was made and allowed to heal for 42 h and then fluorescence stained, and photographed. (FIG. 6B) Changes in the mean of the remaining wound areas in pixels were calculated by Adobe Photoshop software with p value listed, n=5. (FIG. 6C). CECs collected during wounding (Con) and 42 hpw in PBS and TGFβ3 treated corneas were extracted and subjected to Western blotting with listed antibodies; two samples out of 5 from post wounding corneas were shown with actin as the internal control. The anti-TGFβ1-3 antibodies recognized both latent (44, 25, 47 kDa, respectively) and active (15, 12, 15 kDa, respectively) forms, giving two bands in Western blotting. These figures are representatives of 5 corneas per condition from 2 independent experiments; ** p<0.01.
# Corneal Epithelial Debridement Wound. […]
# Exogenous TGFβ3 accelerates delayed epithelial wound closure in DM corneas. Whether exogenously-added TGFβ3 in DM corneas accelerates delayed epithelial wound closure in GK and STZ B6 mice was assessed next. […]
# [8] = system: Smad2/3, TGFβ1, TGFβ2, TGFβ3 in WH CECs; test: Western blotting of CECs of TGFβ3 treated GK rat corneas; format: in vivo; conditions: GK rats
# Protocol: as §4
# Determination of Protein Expression and Phosphorylation by Western Blot Analysis. The epithelial cells removed during corneal debridement (the control) and post-wound, but prior to wound closure, were collected from NL and DM rat corneas and lysed with radioimmunoprecipitation assay (RIPA) buffer. Protein concentrations were determined using Micro BCA kits. Levels of various proteins or their phosphorylation were determined using specific antibodies. For each condition, two samples were shown with β-actin levels as the internal controls.
# Exogenous TGFβ3 accelerates delayed epithelial wound closure in DM corneas. Whether exogenously-added TGFβ3 in DM corneas accelerates delayed epithelial wound closure in GK and STZ B6 mice was assessed next. […] To assess if exogenously added TGFβ3 affects the isoform expression, antibodies against TGFβ1-3 were used for Western blotting. […] While some elevated active TGFβ3 molecules could be from exogenously added TGFβ3 (15 kDa), the latent form (47 kDa) can only be from endogenous sources, indicating an auto-regulation of TGFβ3 expression in rat corneas.
Molecule,Treatment Outcome: Promotes re-epithelialization [1],Treatment Outcome: Reduces occurrence and/or severity of ulcers [2],further results
Activin,Promotes,Reduces occurrence,–
TGβ1: TGFβ isoform 1 administered as part of a therapeutic composition,Promotes,Reduces occurrence,–
B1,Promotes,Reduces occurrence,–
B2,Promotes,Reduces occurrence,–
B3,Promotes,Reduces occurrence,"epithelial wound healing in DM corneas [3]: promotes epithelial wound healing; also recorded: partially restores the healing rate; outcome of phase 3 clinical trials as anti-scarring agent [4]: considered a failure; rate of epithelial closure [5]: significantly increased; Serpine 1 mRNA levels [6]: correlated to the levels of TGFβ3 activity; rate of wound closure [7]: substantially increasing; Smad2/3 phosphorylation in WH CECs ([8]; 42 hpw): enhancing; TGFβ3 expression (latent form, endogenous) ([8]; WH CECs): increased; TGFβ1 expression ([8]; WH DM CECs): no effects; levels of TGFβ2 ([8]; all samples): low and unchanged"
